Data: IntAct's records for PubMed 27456980

B1: Lysosomal cobalamin transport escort protein LMBD1 (Homo sapiens), Q9NUN5 (parent)
chain: MATSGAASAELVIGWCIFGLLLLAILAFCWIYVRKYQSRRESEVVSTITAIFSLAIALITSALLPVDIFLVSYMKNQNGTFKDWANANVSRQIEDTVLYGYYTLYSVILFCVFFWIPFVYFYYEEKDDDDTSKCTQIKTALKYTLGFVVICALLLLVGAFVPLNVPNNKNSTEWEKVKSLFEELGSSHGLAALSFSISSLTLIGMLAAITYTAYGMSALPLNLIKGTRSAAYERLENTEDIEEVEQHIQTIKSKSKDGRPLPARDKRALKQFEERLRTLKKRERHLEFIENSWWTKFCGALRPLKIVWGIFFILVALLFVISLFLSNLDKALHSAGIDSGFIIFGANLSNPLNMLLPLLQTVFPLDYILITIIIMYFIFTSMAGIRNIGIWFFWIRLYKIRRGRTRPQALLFLCMILLLIVLHTSYMIYSLAPQYVMYGSQNYLIETNITSDNHKGNSTLSVPKRCDADAPEDQCTVTRTYLFLHKFWFFSAAYYFGNWAFLGVFLIGLIVSCCKGKKSVIEGVDEDSDISDDEPSVYSA
partner: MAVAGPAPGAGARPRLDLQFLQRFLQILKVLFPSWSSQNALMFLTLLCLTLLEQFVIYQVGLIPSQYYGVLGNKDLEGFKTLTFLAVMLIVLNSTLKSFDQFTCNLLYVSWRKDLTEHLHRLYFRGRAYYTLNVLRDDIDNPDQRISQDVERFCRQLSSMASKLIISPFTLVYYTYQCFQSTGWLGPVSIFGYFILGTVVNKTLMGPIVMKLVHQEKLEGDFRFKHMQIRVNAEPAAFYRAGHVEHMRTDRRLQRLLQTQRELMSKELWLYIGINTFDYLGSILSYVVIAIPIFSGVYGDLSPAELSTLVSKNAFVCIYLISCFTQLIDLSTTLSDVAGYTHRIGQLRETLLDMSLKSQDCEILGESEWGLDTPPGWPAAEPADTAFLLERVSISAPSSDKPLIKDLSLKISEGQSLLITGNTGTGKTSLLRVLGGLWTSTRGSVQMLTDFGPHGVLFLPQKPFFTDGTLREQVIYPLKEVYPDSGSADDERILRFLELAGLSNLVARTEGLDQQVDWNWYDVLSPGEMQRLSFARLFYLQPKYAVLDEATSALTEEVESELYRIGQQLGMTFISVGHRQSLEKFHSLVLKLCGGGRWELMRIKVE

Variants of: B1
Settings: with abcd4_human ABCD4, O14678

| effect of a mutation on the interaction | Variant |
| --- | --- |
| with no effect | Y232A;E233A;R234A;L235A |
| with no effect | W294A;T295A;K296A;F297A |
